Results on six molecules are retold here after publication PMC8685691, “A serum-stable RNA aptamer specific for SARS-CoV-2 neutralizes viral entry”.

Data set [1] has as its target SARS-CoV-2 spike RBD, C-tagged (SARS-CoV-2 (WT), UniProt P0DTC2 319-532). Briefly: BLI competition.
The target of data set [2] is T1, SARS-CoV-2 spike RBD, WT, His-tagged (SARS-CoV-2 (WT), UniProt P0DTC2 319-532). Briefly: FIDA.
Data set [3] deals with T1, SARS-CoV-2 spike RBD, WT, His-tagged. Briefly: BLI competition.
For data set [4] the target is unchanged. Briefly: BLI. A general note: In BLI a coated tip is dipped into the sample, and binding shifts an interference pattern.

B1: RBD-PB6-Tinv (structured_RNA)
RNA: GGCGACAUUUGUAAUAGGACGACCGAUACUUCCGUGUCCUCAGAGGUUGCCA
modifications: 2'-fluoro pyrimidines
In the case of B1, the binding result in data set [1] is given as “no binding”.

As to GGUCCUGGACCGAUACUUCCGUCAGGACCA (structured_RNA, 2'-fluoro pyrimidines) [RBD-PB6-Tc], the binding result in data set [1] was “no binding”.

B2: RBD-PB6 (structured_RNA)
RNA: GGGGCCACCAACGACAUUUGUAAUUCCUGGACCGAUACUUCCGUCAGGACAGAGGUUGAUAUAAAUAGUGCCCAUGGAUCC
modifications: 2'-fluoro pyrimidines
A word on the Kd: it is the concentration at which binding is half-saturated. Low readings indicate a tighter complex, high ones a looser complex. A word on the IC50: it is the concentration needed to halve the response being measured. A higher IC50 goes with a need for much substance. As for B2, the Kd in data set [2] is 129 nM; in data set [4], around 18 nM. Besides, in data set [3], the IC50 is around 250 nM.

On to GGCGACAUUUGUAAUUCCUGGAUCAGGACAGAGGUUGCCA (structured_RNA, 2'-fluoro pyrimidines) [RBD-PB6-Td], for which the binding result in data set [1] is given as “no binding”.

B3: RBD-PB6-Ta (structured_RNA)
RNA: GGCGACAUUUGUAAUUCCUGGACCGAUACUUCCGUCAGGACAGAGGUUGCCA
modifications: 2'-fluoro pyrimidines
In data set [3], B3 displayed an IC50 of 200 nM.

For the molecule GGUUUGUAAUUCCUGGACCGAUACUUCCGUCAGGACAGACCA (structured_RNA, 2'-fluoro pyrimidines) [RBD-PB6-Tb], the binding result in data set [1] is given as “no binding”.
